# From patent US20240336918
# Experiments:
# LIN28A [1] = target: T1, LIN28A (UniProt Q9H9Z2); assay: EMSA; conditions: higher-order aggregates above 50 nM
# T1 sequence: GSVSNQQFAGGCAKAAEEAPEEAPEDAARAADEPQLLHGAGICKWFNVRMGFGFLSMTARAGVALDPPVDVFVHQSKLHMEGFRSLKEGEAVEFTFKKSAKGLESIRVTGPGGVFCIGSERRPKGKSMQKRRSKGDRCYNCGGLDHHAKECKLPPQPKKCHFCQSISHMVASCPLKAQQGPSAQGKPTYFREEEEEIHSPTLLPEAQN
# LIN28A [2] = target: T1, LIN28A; assay: filter; conditions: transition between unbound and bound at ~10 nM; aggregates retained on PES at 50 nM and above
substance,measurement,setting,value
pre-let-7a miRNA,Kd,LIN28A [1],25 nM
same,Kd,LIN28A [2],10 nM
